Reference: patent publication US20180155451A1 (published 2018)

B1: GpH7-B3 variant S267_10E/GpL16-k0 (antibody, human IgG1, kappa)
heavy: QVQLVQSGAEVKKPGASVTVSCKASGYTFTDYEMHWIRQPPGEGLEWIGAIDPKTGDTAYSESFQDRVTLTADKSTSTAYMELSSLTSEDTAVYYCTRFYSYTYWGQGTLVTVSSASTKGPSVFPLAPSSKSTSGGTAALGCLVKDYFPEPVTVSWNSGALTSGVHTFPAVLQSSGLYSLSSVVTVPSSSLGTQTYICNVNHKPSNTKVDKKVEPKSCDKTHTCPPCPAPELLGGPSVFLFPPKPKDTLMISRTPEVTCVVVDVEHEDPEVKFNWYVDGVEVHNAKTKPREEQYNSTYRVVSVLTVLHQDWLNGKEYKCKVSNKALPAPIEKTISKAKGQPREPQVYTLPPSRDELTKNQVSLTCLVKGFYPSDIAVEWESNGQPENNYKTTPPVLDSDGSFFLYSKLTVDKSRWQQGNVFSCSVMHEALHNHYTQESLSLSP
light: DIVMTQSPLSLPVTPGEPASISCQASESLVHSNRNTYLHWYLQKPGQSPQLLIYKVSNRFSGVPDRFSGSGSGTDFTLKISRVEAEDVGVYYCSQNTHVPPTFGQGTKVEIERTVAAPSVFIFPPSDEQLKSGTASVVCLLNNFYPREAKVQWKVDNALQSGNSQESVTEQDSKDSTYSLSSTLTLSKADYEKHKVYACEVTHQGLSSPVTKSFNRGEC
notes: homodimerized, mutation in both H chains; also called Ho Ab
B2: GpH7-B3 variant S337_07I/GpL16-k0 (antibody, human IgG1, kappa)
heavy: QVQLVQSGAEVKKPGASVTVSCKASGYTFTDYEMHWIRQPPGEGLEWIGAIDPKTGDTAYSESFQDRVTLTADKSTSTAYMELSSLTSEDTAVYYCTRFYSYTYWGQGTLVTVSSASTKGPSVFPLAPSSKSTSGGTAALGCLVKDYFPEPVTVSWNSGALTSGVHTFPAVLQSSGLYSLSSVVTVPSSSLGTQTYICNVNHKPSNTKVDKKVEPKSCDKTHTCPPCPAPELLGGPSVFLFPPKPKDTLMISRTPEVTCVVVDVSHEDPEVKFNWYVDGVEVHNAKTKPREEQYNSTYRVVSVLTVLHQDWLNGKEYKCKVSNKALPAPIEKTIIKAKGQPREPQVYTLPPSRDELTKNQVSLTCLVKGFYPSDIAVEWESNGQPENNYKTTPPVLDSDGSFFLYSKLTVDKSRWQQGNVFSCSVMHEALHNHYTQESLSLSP
light: B1 light
notes: as for B1
B3: GpH7-B3 variant K334_13S/GpL16-k0 (antibody, human IgG1, kappa)
heavy: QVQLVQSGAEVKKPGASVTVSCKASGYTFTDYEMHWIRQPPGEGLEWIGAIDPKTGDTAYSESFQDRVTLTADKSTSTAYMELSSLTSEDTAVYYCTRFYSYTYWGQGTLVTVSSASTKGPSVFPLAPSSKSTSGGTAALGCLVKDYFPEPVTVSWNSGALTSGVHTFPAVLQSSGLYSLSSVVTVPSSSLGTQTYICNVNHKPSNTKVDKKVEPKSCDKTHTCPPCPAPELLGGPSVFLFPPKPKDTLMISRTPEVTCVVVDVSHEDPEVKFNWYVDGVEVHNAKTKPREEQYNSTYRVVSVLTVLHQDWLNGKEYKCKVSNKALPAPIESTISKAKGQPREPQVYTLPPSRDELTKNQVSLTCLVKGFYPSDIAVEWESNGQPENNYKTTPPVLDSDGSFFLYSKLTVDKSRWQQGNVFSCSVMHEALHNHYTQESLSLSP
light: B1 light
notes: as for B1
B4: GpH7-B3 variant S239_08L/GpL16-k0 (antibody, human IgG1, kappa)
heavy: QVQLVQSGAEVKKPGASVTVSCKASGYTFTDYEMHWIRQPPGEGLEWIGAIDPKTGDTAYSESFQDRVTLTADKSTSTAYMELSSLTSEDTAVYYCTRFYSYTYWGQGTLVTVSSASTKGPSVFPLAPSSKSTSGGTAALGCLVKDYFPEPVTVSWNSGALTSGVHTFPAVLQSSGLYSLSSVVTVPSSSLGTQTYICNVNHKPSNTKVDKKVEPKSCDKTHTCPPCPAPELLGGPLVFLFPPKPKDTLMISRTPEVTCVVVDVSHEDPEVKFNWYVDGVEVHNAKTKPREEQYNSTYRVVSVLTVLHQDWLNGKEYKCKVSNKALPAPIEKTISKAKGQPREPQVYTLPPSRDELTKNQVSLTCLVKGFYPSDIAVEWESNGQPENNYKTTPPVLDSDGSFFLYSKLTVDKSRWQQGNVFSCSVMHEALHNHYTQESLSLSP
light: B1 light
notes: as for B1
B5: GpH7-B3 variant S239_10E/GpL16-k0 (antibody, human IgG1, kappa)
heavy: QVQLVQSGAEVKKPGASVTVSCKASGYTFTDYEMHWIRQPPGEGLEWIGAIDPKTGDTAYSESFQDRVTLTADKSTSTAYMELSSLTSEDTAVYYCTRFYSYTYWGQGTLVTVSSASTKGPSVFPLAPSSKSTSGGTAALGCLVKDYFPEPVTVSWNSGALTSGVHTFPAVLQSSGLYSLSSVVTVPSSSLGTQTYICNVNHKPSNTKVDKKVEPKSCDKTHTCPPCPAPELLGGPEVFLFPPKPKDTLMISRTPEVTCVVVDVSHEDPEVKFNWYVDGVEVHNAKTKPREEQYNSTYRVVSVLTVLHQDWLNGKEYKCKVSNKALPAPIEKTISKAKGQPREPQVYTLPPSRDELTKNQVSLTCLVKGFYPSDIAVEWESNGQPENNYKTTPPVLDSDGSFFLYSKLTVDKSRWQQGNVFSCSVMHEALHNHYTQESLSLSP
light: B1 light
notes: as for B1
B6: GpH7-B3 variant L234_04F/GpL16-k0 (antibody, human IgG1, kappa)
heavy: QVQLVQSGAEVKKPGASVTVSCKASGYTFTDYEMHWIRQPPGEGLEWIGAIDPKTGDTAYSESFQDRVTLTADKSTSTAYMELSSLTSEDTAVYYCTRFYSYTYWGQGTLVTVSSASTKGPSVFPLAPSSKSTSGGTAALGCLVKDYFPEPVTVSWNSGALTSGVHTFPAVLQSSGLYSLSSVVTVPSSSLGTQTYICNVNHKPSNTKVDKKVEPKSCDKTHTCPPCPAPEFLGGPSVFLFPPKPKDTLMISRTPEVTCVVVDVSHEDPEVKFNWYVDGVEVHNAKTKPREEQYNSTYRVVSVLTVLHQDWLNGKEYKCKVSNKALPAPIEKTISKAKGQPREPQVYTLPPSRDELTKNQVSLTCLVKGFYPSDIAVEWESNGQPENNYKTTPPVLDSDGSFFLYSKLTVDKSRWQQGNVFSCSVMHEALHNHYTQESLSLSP
light: B1 light
notes: as for B1
B7: GpH7-B3 variant K334_19Q/GpL16-k0 (antibody, human IgG1, kappa)
heavy: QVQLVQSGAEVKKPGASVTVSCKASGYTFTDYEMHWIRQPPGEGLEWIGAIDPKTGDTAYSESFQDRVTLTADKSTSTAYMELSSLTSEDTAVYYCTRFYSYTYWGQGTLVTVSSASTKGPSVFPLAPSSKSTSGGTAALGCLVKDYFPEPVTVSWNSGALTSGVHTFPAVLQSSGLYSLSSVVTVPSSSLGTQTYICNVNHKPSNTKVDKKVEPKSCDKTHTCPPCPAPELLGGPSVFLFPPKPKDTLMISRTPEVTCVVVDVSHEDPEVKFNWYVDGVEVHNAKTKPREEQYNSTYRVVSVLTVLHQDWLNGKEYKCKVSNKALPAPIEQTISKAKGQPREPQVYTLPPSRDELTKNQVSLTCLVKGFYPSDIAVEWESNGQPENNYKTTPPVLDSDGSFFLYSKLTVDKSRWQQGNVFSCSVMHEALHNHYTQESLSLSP
light: B1 light
notes: as for B1
B8: GpH7-B3 variant L234_15Y/GpL16-k0 (antibody, human IgG1, kappa)
heavy: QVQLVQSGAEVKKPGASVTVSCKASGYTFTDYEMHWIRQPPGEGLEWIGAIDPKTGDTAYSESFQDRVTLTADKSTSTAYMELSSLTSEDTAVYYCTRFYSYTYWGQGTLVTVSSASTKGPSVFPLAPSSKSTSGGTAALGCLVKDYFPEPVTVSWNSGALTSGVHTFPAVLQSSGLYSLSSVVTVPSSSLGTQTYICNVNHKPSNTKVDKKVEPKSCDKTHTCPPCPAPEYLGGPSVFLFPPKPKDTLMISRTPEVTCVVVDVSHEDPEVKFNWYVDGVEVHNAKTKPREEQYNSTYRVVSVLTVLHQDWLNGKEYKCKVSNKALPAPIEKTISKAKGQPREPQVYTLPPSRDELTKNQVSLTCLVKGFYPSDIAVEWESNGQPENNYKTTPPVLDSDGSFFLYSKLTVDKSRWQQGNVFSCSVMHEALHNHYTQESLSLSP
light: B1 light
notes: as for B1
B9: GpH7-B3 variant S267_09D/GpL16-k0 (antibody, human IgG1, kappa)
heavy: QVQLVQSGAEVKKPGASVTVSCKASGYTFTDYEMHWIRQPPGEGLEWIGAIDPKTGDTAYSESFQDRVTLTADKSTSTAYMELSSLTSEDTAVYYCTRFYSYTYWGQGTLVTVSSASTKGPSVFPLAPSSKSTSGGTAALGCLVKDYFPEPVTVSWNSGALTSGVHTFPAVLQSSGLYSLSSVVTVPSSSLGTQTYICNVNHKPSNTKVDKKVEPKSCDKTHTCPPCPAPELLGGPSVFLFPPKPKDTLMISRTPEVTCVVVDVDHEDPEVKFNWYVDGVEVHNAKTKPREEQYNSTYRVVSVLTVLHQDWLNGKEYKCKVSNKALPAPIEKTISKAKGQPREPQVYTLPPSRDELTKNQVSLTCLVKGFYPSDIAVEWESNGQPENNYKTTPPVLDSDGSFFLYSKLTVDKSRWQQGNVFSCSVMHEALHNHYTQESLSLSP
light: B1 light
notes: as for B1
B10: GpH7-B3 variant L234_20W/GpL16-k0 (antibody, human IgG1, kappa)
heavy: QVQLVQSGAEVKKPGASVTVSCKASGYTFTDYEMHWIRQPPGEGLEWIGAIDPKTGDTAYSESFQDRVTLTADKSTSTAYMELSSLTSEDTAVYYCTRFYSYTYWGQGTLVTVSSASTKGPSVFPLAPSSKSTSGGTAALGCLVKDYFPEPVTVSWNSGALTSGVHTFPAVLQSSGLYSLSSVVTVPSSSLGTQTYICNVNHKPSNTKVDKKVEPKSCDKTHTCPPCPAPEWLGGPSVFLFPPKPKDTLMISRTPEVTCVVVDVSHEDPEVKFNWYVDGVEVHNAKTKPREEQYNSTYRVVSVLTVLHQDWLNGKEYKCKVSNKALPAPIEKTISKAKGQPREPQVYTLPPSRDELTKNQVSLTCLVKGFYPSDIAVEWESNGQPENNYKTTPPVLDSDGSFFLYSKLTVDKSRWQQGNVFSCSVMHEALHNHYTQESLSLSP
light: B1 light
notes: as for B1
B11: GpH7-A5/GpH7-B3 variant S337_08L/GpL16-k0 (antibody, human IgG1, kappa)
heavy 1: not shown
heavy 2: not shown
light: B1 light
notes: heterodimerized, mutation in one H chain only; also called He Ab
B12: GpH7-A5/GpH7-B3 variant K326_19Q/GpL16-k0 (antibody, human IgG1, kappa)
heavy 1: not shown
heavy 2: not shown
light: B1 light
notes: as for B11
B13: GpH7-A5/GpH7-B3 variant H268_02A/GpL16-k0 (antibody, human IgG1, kappa)
heavy 1: not shown
heavy 2: not shown
light: B1 light
notes: as for B11
B14: GpH7-A5/GpH7-B3 variant V266_07I/GpL16-k0 (antibody, human IgG1, kappa)
heavy 1: not shown
heavy 2: not shown
light: B1 light
notes: as for B11
B15: GpH7-A5/GpH7-B3 variant I336_06M/GpL16-k0 (antibody, human IgG1, kappa)
heavy 1: not shown
heavy 2: not shown
light: B1 light
notes: as for B11
B16: GpH7-A5/GpH7-B3 variant L235_20W/GpL16-k0 (antibody, human IgG1, kappa)
heavy 1: not shown
heavy 2: not shown
light: B1 light
notes: as for B11
B17: GpH7-A5/GpH7-B3 variant I336_08L/GpL16-k0 (antibody, human IgG1, kappa)
heavy 1: not shown
heavy 2: not shown
light: B1 light
notes: as for B11
B18: GpH7-A5/GpH7-B3 variant T335_10E/GpL16-k0 (antibody, human IgG1, kappa)
heavy 1: not shown
heavy 2: not shown
light: B1 light
notes: as for B11
B19: GpH7-A5/GpH7-B3 variant T335_01G/GpL16-k0 (antibody, human IgG1, kappa)
heavy 1: not shown
heavy 2: not shown
light: B1 light
notes: as for B11
B20: GpH7-A5/GpH7-B3 variant T335_19Q/GpL16-k0 (antibody, human IgG1, kappa)
heavy 1: not shown
heavy 2: not shown
light: B1 light
notes: as for B11
B21: GpH7-A5/GpH7-B3 variant K326_06M/GpL16-k0 (antibody, human IgG1, kappa)
heavy 1: not shown
heavy 2: not shown
light: B1 light
notes: as for B11
B22: GpH7-A5/GpH7-B3 variant S337_09D/GpL16-k0 (antibody, human IgG1, kappa)
heavy 1: not shown
heavy 2: not shown
light: B1 light
notes: as for B11
B23: GpH7-A5/GpH7-B3 variant E333_13S/GpL16-k0 (antibody, human IgG1, kappa)
heavy 1: not shown
heavy 2: not shown
light: B1 light
notes: as for B11
B24: GpH7-A5/GpH7-B3 variant K326_10E/GpL16-k0 (antibody, human IgG1, kappa)
heavy 1: not shown
heavy 2: not shown
light: B1 light
notes: as for B11
B25: GpH7-A5/GpH7-B3 variant T335_15Y/GpL16-k0 (antibody, human IgG1, kappa)
heavy 1: not shown
heavy 2: not shown
light: B1 light
notes: as for B11
B26: GpH7-A5/GpH7-B3 variant G236_07I/GpL16-k0 (antibody, human IgG1, kappa)
heavy 1: not shown
heavy 2: not shown
light: B1 light
notes: as for B11
B27: GpH7-A5/GpH7-B3 variant E333_08L/GpL16-k0 (antibody, human IgG1, kappa)
heavy 1: not shown
heavy 2: not shown
light: B1 light
notes: as for B11
B28: GpH7-A5/GpH7-B3 variant A330_19Q/GpL16-k0 (antibody, human IgG1, kappa)
heavy 1: not shown
heavy 2: not shown
light: B1 light
notes: as for B11
B29: GpH7-A5/GpH7-B3 variant A327_09D/GpL16-k0 (antibody, human IgG1, kappa)
heavy 1: not shown
heavy 2: not shown
light: B1 light
notes: as for B11
B30: GpH7-A5/GpH7-B3 variant Y296_16H/GpL16-k0 (antibody, human IgG1, kappa)
heavy 1: not shown
heavy 2: not shown
light: B1 light
notes: as for B11
B31: GpH7-A5/GpH7-B3 variant S337_20W/GpL16-k0 (antibody, human IgG1, kappa)
heavy 1: not shown
heavy 2: not shown
light: B1 light
notes: as for B11
B32: GpH7-A5/GpH7-B3 variant Y296_18N/GpL16-k0 (antibody, human IgG1, kappa)
heavy 1: not shown
heavy 2: not shown
light: B1 light
notes: as for B11
B33: GpH7-A5/GpH7-B3 variant K334_04F/GpL16-k0 (antibody, human IgG1, kappa)
heavy 1: not shown
heavy 2: not shown
light: B1 light
notes: as for B11
B34: GpH7-A5/GpH7-B3 variant H268_19Q/GpL16-k0 (antibody, human IgG1, kappa)
heavy 1: not shown
heavy 2: not shown
light: B1 light
notes: as for B11
B35: GpH7-A5/GpH7-B3 variant Y296_09D/GpL16-k0 (antibody, human IgG1, kappa)
heavy 1: not shown
heavy 2: not shown
light: B1 light
notes: as for B11
B36: GpH7-A5/GpH7-B3 variant T335_20W/GpL16-k0 (antibody, human IgG1, kappa)
heavy 1: not shown
heavy 2: not shown
light: B1 light
notes: as for B11
B37: GpH7-A5/GpH7-B3 variant L328_06M/GpL16-k0 (antibody, human IgG1, kappa)
heavy 1: not shown
heavy 2: not shown
light: B1 light
notes: as for B11
B38: GpH7-A5/GpH7-B3 variant S324_02A/GpL16-k0 (antibody, human IgG1, kappa)
heavy 1: not shown
heavy 2: not shown
light: B1 light
notes: as for B11
B39: GpH7-A5/GpH7-B3 variant E333_04F/GpL16-k0 (antibody, human IgG1, kappa)
heavy 1: not shown
heavy 2: not shown
light: B1 light
notes: as for B11
B40: GpH7-A5/GpH7-B3 variant V266_08L/GpL16-k0 (antibody, human IgG1, kappa)
heavy 1: not shown
heavy 2: not shown
light: B1 light
notes: as for B11
B41: GpH7-A5/GpH7-B3 variant S239_09D/GpL16-k0 (antibody, human IgG1, kappa)
heavy 1: not shown
heavy 2: not shown
light: B1 light
notes: as for B11
B42: GpH7-A5/GpH7-B3 variant Y296_04F/GpL16-k0 (antibody, human IgG1, kappa)
heavy 1: not shown
heavy 2: not shown
light: B1 light
notes: as for B11
B43: GpH7-A5/GpH7-B3 variant A330_16H/GpL16-k0 (antibody, human IgG1, kappa)
heavy 1: not shown
heavy 2: not shown
light: B1 light
notes: as for B11
B44: GpH7-A5/GpH7-B3 variant S337_10E/GpL16-k0 (antibody, human IgG1, kappa)
heavy 1: not shown
heavy 2: not shown
light: B1 light
notes: as for B11
B45: GpH7-A5/GpH7-B3 variant K334_08L/GpL16-k0 (antibody, human IgG1, kappa)
heavy 1: not shown
heavy 2: not shown
light: B1 light
notes: as for B11
B46: GpH7-A5/GpH7-B3 variant L235_04F/GpL16-k0 (antibody, human IgG1, kappa)
heavy 1: not shown
heavy 2: not shown
light: B1 light
notes: as for B11
B47: GpH7-A5/GpH7-B3 variant L328_14T/GpL16-k0 (antibody, human IgG1, kappa)
heavy 1: not shown
heavy 2: not shown
light: B1 light
notes: as for B11
B48: GpH7-A5/GpH7-B3 variant T335_16H/GpL16-k0 (antibody, human IgG1, kappa)
heavy 1: not shown
heavy 2: not shown
light: B1 light
notes: as for B11
B49: GpH7-A5/GpH7-B3 variant T335_18N/GpL16-k0 (antibody, human IgG1, kappa)
heavy 1: not shown
heavy 2: not shown
light: B1 light
notes: as for B11
B50: GpH7-A5/GpH7-B3 variant K334_16H/GpL16-k0 (antibody, human IgG1, kappa)
heavy 1: not shown
heavy 2: not shown
light: B1 light
notes: as for B11
B51: GpH7-A5/GpH7-B3 variant G236_03V/GpL16-k0 (antibody, human IgG1, kappa)
heavy 1: not shown
heavy 2: not shown
light: B1 light
notes: as for B11
B52: GpH7-A5/GpH7-B3 variant E333_14T/GpL16-k0 (antibody, human IgG1, kappa)
heavy 1: not shown
heavy 2: not shown
light: B1 light
notes: as for B11
B53: GpH7-A5/GpH7-B3 variant L235_15Y/GpL16-k0 (antibody, human IgG1, kappa)
heavy 1: not shown
heavy 2: not shown
light: B1 light
notes: as for B11
B54: GpH7-A5/GpH7-B3 variant S267_02A/GpL16-k0 (antibody, human IgG1, kappa)
heavy 1: not shown
heavy 2: not shown
light: B1 light
notes: as for B11
B55: GpH7-A5/GpH7-B3 variant E333_09D/GpL16-k0 (antibody, human IgG1, kappa)
heavy 1: not shown
heavy 2: not shown
light: B1 light
notes: as for B11
B56: GpH7-A5/GpH7-B3 variant H268_18N/GpL16-k0 (antibody, human IgG1, kappa)
heavy 1: not shown
heavy 2: not shown
light: B1 light
notes: as for B11
B57: GpH7-A5/GpH7-B3 variant T335_13S/GpL16-k0 (antibody, human IgG1, kappa)
heavy 1: not shown
heavy 2: not shown
light: B1 light
notes: as for B11
B58: GpH7-A5/GpH7-B3 variant L328_20W/GpL16-k0 (antibody, human IgG1, kappa)
heavy 1: not shown
heavy 2: not shown
light: B1 light
notes: as for B11
B59: GpH7-A5/GpH7-B3 variant T335_07I/GpL16-k0 (antibody, human IgG1, kappa)
heavy 1: not shown
heavy 2: not shown
light: B1 light
notes: as for B11

What follows are binders tested against T1, FcγRIIa H (human FcγRIIa, allotype with His at position 131), extracellular domain with C-terminal His tag (human, UniProt P12318 34-217) (assay: SPR (Biacore), antibody captured on antigen peptide chip, FcγR as analyte; relative to HoCon Ab GpH7-B3/GpL16-k0 = 100).
Target sequence in this assay (P12318 34-217): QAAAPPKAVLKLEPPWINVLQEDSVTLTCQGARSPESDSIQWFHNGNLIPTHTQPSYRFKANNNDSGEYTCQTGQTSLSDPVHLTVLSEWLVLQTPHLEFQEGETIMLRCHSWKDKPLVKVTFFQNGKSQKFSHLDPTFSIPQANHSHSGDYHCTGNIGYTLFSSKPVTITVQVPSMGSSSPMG

Binder	Ho/Con_2aH [control = 100]
B1	98.5
B2	94
B3	94.9
B4	87
B5	91.4
B6	54.2
B7	97.2
B8	43.8
B9	91.5
B10	55.3

The binders below were run against T1, FcγRIIa H (human FcγRIIa, allotype with …) (assay: SPR (Biacore), antibody captured on antigen peptide chip, FcγR as analyte; relative to HeCon Ab GpH7-A5/GpH7-B3/GpL16-k0 = 100).

Binder	He/Con_2aH [control = 100]
B11	100
B12	101
B13	114
B14	106
B15	106
B16	118
B17	106
B18	108
B19	103
B20	103
B21	103
B22	107
B23	101
B24	102
B25	106
B26	115
B27	102
B28	102
B29	105
B30	104
B31	102
B32	104
B33	106
B34	102
B35	104

Binder	He/Con_2aH [control = 100]
B36	105
B37	104
B38	102
B39	102
B40	104
B41	114
B42	100
B43	101
B44	102
B45	104
B46	111
B47	116
B48	105
B49	103
B50	104
B51	119
B52	100
B53	122
B54	120
B55	103
B56	112
B57	106
B58	113
B59	108
